Measured values as given in the DeepSol protein solubility set.

Assay: soluble on expression in E. coli; label from the status in PepcDB or PDB records

| Sequence | soluble on expression in E. coli |
| --- | --- |
| MAHHHHHHMAPGVIPTVFRSERDREWAAQRFNYKKGSDDEERVARKRLLFARDRVHLPDDTVVETIRSPTEQLEELRALREHPPMHLLSEQLNSIAEESHRYAAALAAAAAAQPADPKDVASPASLRSDAAATSSLDGVALPPLPGAAAVVSSPPQVEIQFEDRSLFATAAILFRDRDDRVVRAMRFIGACGMVWKEVA | soluble |
| MDEQEFRKQLTLKPVEEEHIDQFNELLSYVFQVTEADIEESGFENKRAFIKSKQPILELSKVFGWFHENQLISQIAIYPCEVNIHGALYKMGGVTGVGTYPEYANHGLMKDLIQTALEEMRQDKQWISYLFPYNIPYYRRKGWEIMSDKLSFKIRDTQLPKTVPVPGMIERLAVDHPDVFDVYARFARQNHGALIRSAFNWEEYWRFENEEERTAAVYYGANQEPLGVLFYWVADEVFHIKEMFYLNQEARNGLWNFITAHFSMVYWVKGDIYKNEPLAFLLEDSQIKESIEPYYMARIVDVKAFLENFPFESTAKPFHFVVKDPVAEWNNGIFGLIWDENDQVTITDEPLGTAVHLDIQTLTCLVMNYRRPSYLHRIERIDTDKETLNSLERIFPDQEAYFSDYF | soluble |
| MSLTNTTKIVFLGASSASFGLSMFRDLFASPVLAGSTLTLVGRNPETLGRMTELAKLMNARSGAGLIIEQTTDRRAALDGAGFVINATAIDRNRLWKQDFEVPKKHGIRHTLGENGGPGGLFFTLRTLPLVFDFIRDIEELCPTALFLNYSNPESRIILALGRYTKVRHIGLCHGIFMGRDAVAYIMQMPREEIEVWGAGLNHFQCLTEIRHRDTGEDLYPRFRAAEQSFDPDAWRFTRRLYRAFGYWLTCSDDHLGEYLPYGWEAGEKGYDFDQDERWRGEFLTQLNGVLGGTMPIPQWWTEPSGERGAAVIAAMLHNQKRFIESGIVINRGVIPNLPAELAVEVPVTVDAAGVHPVSLGPLPDPIAKLMLMQASVQQLAVEAAVHASKELALQALLIDPVVNSAVAAEKILDELWEINRPYIRKEGHHHHHH | not soluble |
| MSDIPAGDYEKGKKVYKQRCLQCHVVDSTATKTGPTLHGVIGRTSGTVSGFDYSAANKNKGVVWTRETLFEYLLNPKKYIPGTKMVFAGLKKADERADLIKYIEVESAKSL | not soluble |
| ASTQGISEDLYNRLVEMATISQAAYADLCNIPSTIIKGEKIYNAQTDINGWILRDDTSKEIITVFRGTGSDTNLQLDTNYTLTPFDTLPQCNDCEVHGGYYIGWISVQDQVESLVKQQASQYPDYALTVTGHSLGASMAALTAAQLSATYDNVRLYTFGEPRSGNQAFASYMNDAFQVSSPETTQYFRVTHSNDGIPNLPPAEQGYAHGGVEYWSVDPYSAQNTFVCTGDEVQCCEAQGGQGVNDAHTTYFGMTSGACTW | soluble |
| MTKKYDLHCHSTASDGVLSPTELVHRAYAQGVNVLALCDHDTIAGIDEAEIAAKEVGIELITGVEISTNWEGRGIHIVGLNFDKTHPKMTALLQSQKALREKRAVEIGDKLEKAGIPNAYDGAKALADGEVTRAHYARYLVQIGKVSNDGQAFKRYLGQGKSAFVKAEWADIPTAIETIHAAGGIAIIAHPLRYNMTGKWVRKLIVDFKAWGGDGMEMADCGQTKDQRQMLARWAKEFDLQGSVGSDFHFPCGWIELGKNLDLVDSVIPVWEKF | not soluble |
| MAQMTMIQAITDALRVEMKNDPNVLVFGEDVGVNGGVFRATEGLQAEFGEDRVMDTPLAESGIGGLAVGLALEGFRPVPEIQFFGFVYEVMDSISGQLARMRYRSGGRWTAPVTVRSPFGGGVHTPELHADSLEGLVAQQPGLKVVIPSTPYDAKGLLISAIRDNDPVIYLEHMKLYRSFRQDVPEGEYTIDLGKADIKREGTDVSVIAYGAMVHAALKAAEELEKEGISLEVVDLRTVQPLDIETIIASVEKTGRVVVVQEAQKQAGIAANVVAEINDRAILNLEAPVVRVAAADTVFPFSQAESVWLPNHKDIVEAVNKVMNF | not soluble |
| MSLSIPLILASQSRPRRDVLFSAGICPTIRVSHVDEPAALEREAAALGVTVNDLSVEQRVMILATAKAEAVHQAYRNIADTAAHARGERVVGFPLRAADDRDASSAGTAARTDSAQSADETKTRDFSGIAIPTVAEPIADFVDGRPSLTRSKAGPLILGCDSMFLLDGECYGKPHSEEVARERLRAMRGATGELWTGHCLIDFASGRMVRGASKATLHFCEYSDLDIERYIATGEPLEVAGSFTLEGFGGAFIDSIEGDPHGIIGLSLPLARRLAAQLGVEWTDLWNVTRSDLAPDAEYDAKTGAAKPLPPKENVHQPGDGWVDCACGRKHWGTNGASGVLLARRSETTGEVTHVVMQHRAVWSAEGGTWGIPGGATADGESPIEGALRESYEEANITPEDIDVVGSYCEDHGPWSYTTVFAFEKPGHRIEPKANDDESMEIEWVPVDDVPNRKLLTAMRTDWPNFAARLRALAAVREGHHHHHH | soluble |
| GPGSMVAKQHFLAAVKMTPARGAAAALSPPQTAEVVGRTAAGGKGCSGSFVDRRLENVMARAREMGWTSPESLIESLKAAQWHSHGKTPAIAEAEAAALPSPHVPAFKPDALSSSSDRHAQPRLPQPRDETPHQARKGAAVSGANSSITECWSGHGPVSQQPHTPHQGADACRAFPSSRTESADSAMRVEATRVLCSGGAAHAGLPSESLLSPPAAESSRVAGTGHAYPPAPLQGHEGLVSSGLTNPLTRLTMPTSATAGAAAAQPLIELEQELVKLRHLVRTLESKQFVHAHQSSAQASELQAQCAELQHQQLAQAKELRLALARLISVGNELEGLRDVKTHLQMQLTASQQESARLRDALLMGETRARDVQ | not soluble |
| MINEHYIPQAVILANGEYPAHELPLRLLAEAQFVVCCDGAANEYISRGHTPDVIIGDGDSLLPEYKKRFSSIILQISDQETNDQTKAVHYLQSKGIRKIAIVGATGKREDHTLGNISLLVEYMRSGMEVRTVTDYGTFIPVSDTQSFASYPGQQVSIINFGAKGLKAEGLFYPLSDFTNWWQGTLNEAIADEFTIHCTGEYLVFLAY | soluble |
| GSVRPVVGEIAANSIAAEAQIAPGTELKAVDGIETPDWDAVRLQMVDKIGDESTTITVAPFGSDQRRDVKLDLRHWAFEPDKEDPVSSLGIRPRGPQ | soluble |
| MGSDKIHHHHHHMHLAAEQMNLSQPAVSKMLKEIEGLLGFQVFERLPRNMPVTALGEHVIRYAQRVLNDAKHFVEDIEILRLGGHGFLKVGGIFAATAVVIPNSIIEIKKQWPLLSIDVVEQTSDHLMEMLSEHTLDLAIGRFTDVTQSQFFDFQPLGPEPFCIVVNNAHPCAQKKFCTLEELLKWPWVLYPKGTPIRERMEGAFARAKVKIPLNTVNTMSMQTFLQILKGAPMVGMLPEAMVIDQVKEGQLQILETDLILDAQDYGILTRKDEPVSDIAAAFINILLKNAKRK | not soluble |
| MVLRTGRLSDFQRDMMNDHWAKFGLDYQKSPFDFVEIFGNANPVVLEIGFGMGRSLVEMAAQNPDRNYIGIEVHTPGVGACIAYAVEKQVDNLRVICHDATEILRDAVADGSLAGLQLYFPDPWQKSKHHKRRIVQTEFVMRLLTKLTAGGFIHFATDWQNYAEHMLAVLRQFSPALVNTSPTGDFIDRPAFRPLTKFEARGQRLGHAVWDLYFVKKLEHHHHHH | not soluble |
| MAGDPMKIMIFICGEGLGHTSRCLALGKELLAAGHEIEFGAYGYSRDLVEKTGYRIHEIPSEIKLVGKAGGFDLSGSIEATLKNARILGGPKVLKLIKDFKPDVVVSDSYYLGTLAAMLLNIPVYLIINQSNMEDFFKNRGVPIRLLGDLTKKFYREVFEKTDKIIIPDYPLPYTVCRKNLNFSPGLWEKLEHHHHHH | not soluble |
| MGKLFGTDGVRGIVNKELTPELVLKLSKAIGTFFGKNSKILVGRDVRAGGDMLVKIVEGGLLSVGVEVYDGGMAPTPALQYAVKTLGYDGGVVITASHNPAPYNGIKVVDKDGIEIRREKENEIEDLFFTERFNTIEWSSLTTEVKREDRVISTYVNGILSHVDIEKIKKKNYKVLIDPANSVGALSTPLVARALGCKIYTINGNLDPLFSARQPEPTFDSLKETAEVVKTLKVDLGVAHDGDADRAIFIDSEGRVQWGDRSGTLLSYWASVKNPKAIKKIVTAVSSSSLVEEYLSKYNIQVDWTKVGSVDIAHKVADENALAGFEENGGFMYPPHQYVRDGAMSFALMLELLANENVSSAELFDRLPKYYLVKTKVDLKPGLMVEEIYKKILEVYSTSSVKAITIDGVKIIGKDFWFLVRKSGTEPIIRIMAEAKDENVANNLVNELKKIVEGK | soluble |
